Laboratory results as given in the supplement of paper PMC7125110.
± gives the standard error. Variants at the floor of the assay were thinned out.

B1: glmS ribozyme (parent)
chain: AUAAAAGCGCCAGAACUACAGAAAUGUAGUUGACGAGGAGGAGGUUUAUCGAAUUUUCGGCGGAUGCCUCCAAA

Legend:
Settings in all cases: with glucosamine-6-phosphate
glucosamine-6-phosphate [1] = variants of: B1; test: self-cleavage kobs at 160 uM GlcN6P; higher = faster cleavage; RNA array
Method in brief: (§1)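 Sequenced MiSeq chips were the platform: E. coli RNA polymerase transcribed barcoded ribozyme variants on them in situ, and a hybridised Cy3 probe tracked these at 37 °C. After glucosamine-6-phosphate (40 μM to 10 mM) in HEPES/KCl/Mg(OAc)2 buffer was flowed in, tiles were imaged over ~14 h. Signals normalised to baseline and to non-cleaving reference variants were reduced to per-tile medians and fit to one- or two-exponential decays to obtain kobs. kcat and KM were derived through weighted Michaelis–Menten fits across concentrations.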

glucosamine-6-phosphate [2] = variants of: B1; test: self-cleavage kobs at 640 uM GlcN6P; higher = faster cleavage; RNA array
Method in brief: as §1

glucosamine-6-phosphate [3] = variants of: B1; test: self-cleavage kobs at 2500 uM GlcN6P; higher = faster cleavage; RNA array
Method in brief: as §1

glucosamine-6-phosphate [4] = variants of: B1; test: self-cleavage kobs at 10000 uM GlcN6P; higher = faster cleavage; RNA array
Method in brief: as §1

Variant	self-cleavage kobs at 160 uM GlcN6P (glucosamine-6-phosphate [1])	self-cleavage kobs at 640 uM GlcN6P (glucosamine-6-phosphate [2])	self-cleavage kobs at 2500 uM GlcN6P (glucosamine-6-phosphate [3])	self-cleavage kobs at 10000 uM GlcN6P (glucosamine-6-phosphate [4])
AUAAAAGCGCCAGAACUACAGAAAUGUAGUUGACGGGGAGGAGGUUUAUCGAAUUUUCGGCGGGUGCCUCUAAA	< 1e-05 s⁻¹	< 1e-05 s⁻¹	–	–
AUAAAAGCGCCAGAACUACAGAAAUGUAGUUGACGAGGAGGAGGUUUACCCAAUUUUCGCCGGAUGCUUCCAAA	< 1e-05 s⁻¹	< 1e-05 s⁻¹	< 1e-05 s⁻¹	–
AUAAAAGUGCCAGAACUACAGAAAUGUAGUUGACGAGGAGGAGGUUUAUCGAAUUUUCGGCGAAUGCCUCCAAA	< 1e-05 s⁻¹	–	< 1e-05 s⁻¹	< 1e-05 s⁻¹
AUAAAUGCGCCAGAACUACAGAAAUGUAAUUGACGAGGAGGAGGUUUAUCGAAGUUUCGGCGGAUGCCUCCAAA	< 1e-05 s⁻¹	–	–	–
AUAAAAGCGCCAGACCUACAGAAAUGUAGUUGAAGAGGAGGAGGUUUAUCGAAUUUUCGGCGGAUGCCUCCAAA	< 1e-05 s⁻¹	< 1e-05 s⁻¹	< 1e-05 s⁻¹	< 1e-05 s⁻¹
AUAAAAGCGCCAGAACUACAGAAAUGUAGUUGACGAGUAGGAGGUUUAUCGAAUUUUCGGCCGAUGCCUCCAAA	< 1e-05 s⁻¹	< 1e-05 s⁻¹	–	–
AUAAAAGCGCCAGACCUACAGAAAUGUAGUGGACGAGGAGGAGGUUUAUCGAAUUUUCGGCGGAUGCCGCCAAA	4.96e-05 ± 2e-05 s⁻¹	0.000378 ± 9.2e-05 s⁻¹	–	–
AUAAAAUCGCCACAACUACAGAAAUGUAGUUGACGAGGGGGAGGUUUAUCGAAUUUUCGGCGGAUGCCUCCAAA	< 1e-05 s⁻¹	< 1e-05 s⁻¹	< 1e-05 s⁻¹	–
AUAAAAGCGCCAGAACUACAGAAAUGUAGUUCACGAGGAGGAGGUUAAUCGAAUUUUCGGCCGGUGCCUCCAAA	< 1e-05 s⁻¹	< 1e-05 s⁻¹	< 1e-05 s⁻¹	–
AUAAAAGCGCUAGAGCUACAGAAAUGUAGUUGAUGAGGAGGAGGUUUAUCGAAUUUCCGGCGGAUGCCUCAAAA	< 1e-05 s⁻¹	< 1e-05 s⁻¹	< 1e-05 s⁻¹	–
AUAAAAGCGCCAGAACUACAGAAAUGUAGUUGACGAGGAGGAGGUUAAUCGAAUUUUCGGCGCAUGCCUCCAAA	< 1e-05 s⁻¹	< 1e-05 s⁻¹	< 1e-05 s⁻¹	–
AUAAAAGCGACAGAACUACAGAAAUGUAGUUGACGAGGAGGAGGUUUAUCGAAGUUUCGGCGGAUGCCUCGAAA	9.72e-05 ± 3.2e-05 s⁻¹	0.000112 ± 5.5e-05 s⁻¹	–	–
AUAAAAGCGCCAGAAUUACAGAAAUGUAGUUGACGAGGACGAGGUUUAUAGAAUUUUCGGCGGAUGGCUCCAAA	< 1e-05 s⁻¹	< 1e-05 s⁻¹	–	–
AUAAAUGCGACAGAACUACAGAAAUGUAGUUGACGAGGGCGAGGUUUAUCGAAUUUUCGGGGGAUGGCUCCAAA	< 1e-05 s⁻¹	< 1e-05 s⁻¹	< 1e-05 s⁻¹	–
AUAAAAGUGCCAGAACUACAGAAAUGUAGUUGACGAGGAGGAGGUUUAUCGAAUUCUCGGCGGAUGCCUCCAAA	< 1e-05 s⁻¹	< 1e-05 s⁻¹	< 1e-05 s⁻¹	< 1e-05 s⁻¹
AUAAAAGCGUCACAAGUACAGAAAUGUAGUUAACGAGGAGGAGGUUUAUCGAAUUUUCGGCGGAUGCCUCCAAA	< 1e-05 s⁻¹	–	–	–
AUAAAAGCGCCAGGACUACAGAAAUGUAGUUGACGAGGAGGAGGUUUAACGAAUUAUCGGCAGAUGCCUCUAAA	< 1e-05 s⁻¹	–	–	–

Variant	self-cleavage kobs at 160 uM GlcN6P (glucosamine-6-phosphate [1])	self-cleavage kobs at 640 uM GlcN6P (glucosamine-6-phosphate [2])	self-cleavage kobs at 2500 uM GlcN6P (glucosamine-6-phosphate [3])	self-cleavage kobs at 10000 uM GlcN6P (glucosamine-6-phosphate [4])
AUAAAAGCGCCAGAACUACAGAAAUGUAGUUGACGAGGAGGAGAUUUAUCGAAUUUUCGGCGGAUCCCUCCAAA	< 1e-05 s⁻¹	–	–	–
AUAAAAGCGCCAGAACUACAGAAAUGUAGUUGACGAGGAGUAGGUGUAUCGAAUUUUCGGAGGAUGCCUCCAAA	< 1e-05 s⁻¹	< 1e-05 s⁻¹	< 1e-05 s⁻¹	–
AUAAAAGCGCCAGAACUACAGAAAUGUAGUGGACCAGGAGGAGGUAUAUCGAAUUUUCGGCGGAUGCCUGCAAA	< 1e-05 s⁻¹	< 1e-05 s⁻¹	< 1e-05 s⁻¹	–
AUAAAAGCGCCAGAACUACAGAAAUGUAGUUGACGAGAUGGAGGUUUAUCGAAUUUUCGGCGGAUGCCUCCAAA	< 1e-05 s⁻¹	< 1e-05 s⁻¹	–	–
AUAAAAGCGCCAGAACUACAGAAAUGUAGUUGACGAGCAGGAGGUUUAUCGAAUUUUCGGUGGAUGCCUCUAAA	< 1e-05 s⁻¹	–	–	–
AUAAAAGCGCCAGAACUACAGAAAUGUAGCUGACGGGGAGGAGGUUUAUCGAAUUUUCGGCGGAUGACUCCAAA	< 1e-05 s⁻¹	–	< 1e-05 s⁻¹	–
AUAAAAGCGCCAGACCUACAGAAAUGUAGUUGACGAGGAGGAGGUUUAUCGAAUUUUCGGUGGUUGCCUCCAAA	< 1e-05 s⁻¹	–	–	–
AUAAAAGCGCCAGAACUACAGAAAUGUAGUUGACCAGGAAGUGGUUUAUCGAAUUUUCGGCGGAUGCCUCCAAA	< 1e-05 s⁻¹	< 1e-05 s⁻¹	< 1e-05 s⁻¹	–
AUAAAAGCGCCAGAUCUACAGAAAUGUAGUUGGCGAGGAGGAGGUUGAUCGAAGUUUCGGCGGAUGUCUCAAAA	0.000235 ± 8.9e-05 s⁻¹	0.000303 ± 8.2e-05 s⁻¹	–	–
AUAAAAGCGCCAUAACUACAGAAAUGUAGUUGACGAAGAGGAGGUUUAUCGACUUUUCGUCGGAUGGCUCCAAA	< 1e-05 s⁻¹	< 1e-05 s⁻¹	< 1e-05 s⁻¹	–
AUAAAAGCGCCAGAACUACAGAAAUGUAGUGGACGAGGAGGAGGUUUAUCCAAUUUCCGGCGGAUGCCUCCAAA	< 1e-05 s⁻¹	< 1e-05 s⁻¹	< 1e-05 s⁻¹	–
AUAAAAGCGCCAGAACUACAGAAAUGUAUUUUACGAGGAGGAGGUUUAUCGAAUUUUCGGCGGUUGCCUCCAAA	< 1e-05 s⁻¹	–	–	–
AUAAAAGCGCCAGAACUACAGAAAUGUAGUUGACGAGGAGGGGGUUUAUCGAAUUUUCGACGGAUGCAUCCAAA	< 1e-05 s⁻¹	–	–	–
AUAAAAGCGCCAGAACUACAGAAAUGUAGUUGACGAGGAGGAGGUUCAUCGAAUUUUCAGCGGAUGCCUCCAAA	< 1e-05 s⁻¹	–	–	–
AUAAAAGCGCCAGAACUACAGAAAUGUAGUUGACGAGGAGGAGGUUUAUCGAAUUUUCGGCGAAUGUCUCCAAA	< 1e-05 s⁻¹	–	–	–
AUAAAGGCGCCAGAACUACAGAAAUGUAGUUGACGUGGAGAAGGUUAAUCGAAUUUUCGGCGGAUGGCUCCAAA	< 1e-05 s⁻¹	< 1e-05 s⁻¹	< 1e-05 s⁻¹	–
AUAAAAGCGCCAGAAGUACAGAAAUGUAGUUGACGUGGAGGAGGUUUAUCGAAUUUUCGGCGGAUGCCUCCAAA	< 1e-05 s⁻¹	< 1e-05 s⁻¹	< 1e-05 s⁻¹	–
